Measured values published in patent EP4477673A1, “IMMUNOCONJUGATE AND USE THEREOF” (priority 2022, dated 2023).
Residue numbers refer to the chain shown, from its start. Names and notes keep the numbering of the source. Values belong to the binder of their own block, whether it stands above or below them.

Columns and labels:
human PD-1 = human PD-1 (human, UniProt Q15116 25-288); assay: cell-based or functional assay
[1] = target: Human PD-1 antigen protein (Sino Biological, 10377-H08H) (human, UniProt Q15116 25-167); assay: SPR Biacore 8K, fusion protein captured by anti-human IgG (Fc), human PD-1 as analyte
Chain of Human PD-1 antigen protein (Sino Biological, 10377-H08H) (Q15116 25-167 limits assumed): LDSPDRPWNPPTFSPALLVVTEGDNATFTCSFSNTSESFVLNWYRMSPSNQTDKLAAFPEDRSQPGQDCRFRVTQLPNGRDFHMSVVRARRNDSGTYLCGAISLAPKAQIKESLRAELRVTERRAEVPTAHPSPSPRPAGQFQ

Chain of human PD-1 (Q15116 25-288 limits assumed): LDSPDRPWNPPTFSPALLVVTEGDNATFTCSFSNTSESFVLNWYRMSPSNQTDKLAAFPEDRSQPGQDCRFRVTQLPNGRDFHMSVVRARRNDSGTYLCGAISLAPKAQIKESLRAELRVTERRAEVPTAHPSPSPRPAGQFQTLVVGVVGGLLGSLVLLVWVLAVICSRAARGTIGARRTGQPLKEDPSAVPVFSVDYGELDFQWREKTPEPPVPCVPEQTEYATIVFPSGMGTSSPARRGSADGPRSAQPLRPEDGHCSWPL

M07e-hPD-1 cell proliferation ratio (%) at 0.0001 nM (human PD-1): 3.8%
M07e-hPD-1 cell proliferation ratio (%) at 0.001 nM (human PD-1): 4.5%
M07e-hPD-1 cell proliferation ratio (%) at 0.01 nM (human PD-1): 11.9%
M07e-hPD-1 cell proliferation ratio (%) at 0.1 nM (human PD-1): 27.3%
M07e-hPD-1 cell proliferation ratio (%) at 1 nM (human PD-1): 36%
M07e-hPD-1 cell proliferation ratio (%) at 10 nM (human PD-1): 35.5%
M07e-hPD-1 cell proliferation ratio (%) at 100 nM (human PD-1): 35.5%
M07e-hPD-1 cell proliferation ratio (%) at 1000 nM (human PD-1): 44.2%
Kd [1]: 12.3 nM
koff [1]: 0.00264 s⁻¹
kon [1]: 215000 M⁻¹ s⁻¹
B1: A-N88D-M08 (Fc fusion)
chain (part 1 of 2): EVQLVESGGGLVQPGGSLRLSCAASGLTFSDYSMSWYRQAPGKGRELVAIISGSGVITHYVDSVKGRFTISRDNAKNTLYLQMRSLRAEDTAVYYCRAVSDWQDYWGQGTQVTVSS
chain (part 2 of 2): GGGGSGGGGSGGGGSAPASSSTKKTQLQLEHLLLDLQMILQGISNYKNPKLTRMLTAKFYMPKKATELKHLQCLEEELKPLEEVLQGAQSKNFHLRPRDLISDINVIVLELKGSETTFMCEYADETATIVEFLNRWITFAQSIISTLT
chain: B1 chain (part 1 of 2)
notes: also called A-N88D-M8; not shown: IgG1 hinge (C220S) + Fc Knob chain as in A-N88D; IgG1 hinge (C220S) + Fc Hole chain as in A-N88D

M07e-hPD-1 cell proliferation ratio (%) at 0.0001 nM (human PD-1): 7.2%
M07e-hPD-1 cell proliferation ratio (%) at 0.001 nM (human PD-1): 6.3%
M07e-hPD-1 cell proliferation ratio (%) at 0.01 nM (human PD-1): 9.4%
M07e-hPD-1 cell proliferation ratio (%) at 0.1 nM (human PD-1): 7.6%
M07e-hPD-1 cell proliferation ratio (%) at 1 nM (human PD-1): 12.4%
M07e-hPD-1 cell proliferation ratio (%) at 10 nM (human PD-1): 19.1%
M07e-hPD-1 cell proliferation ratio (%) at 100 nM (human PD-1): 34.4%
M07e-hPD-1 cell proliferation ratio (%) at 1000 nM (human PD-1): 51.3%
Kd [1]: 134 nM
koff [1]: 0.0198 s⁻¹
kon [1]: 148000 M⁻¹ s⁻¹
B2: A-N88D-M28 (Fc fusion)
chain (part 1 of 2): B1 chain (part 1 of 2) with D31S, V56G, V61A
chain (part 2 of 2): B1 chain (part 2 of 2)
chain: B1 chain (part 1 of 2) with D31S, V56G, V61A
notes: not shown: IgG1 hinge (C220S) + Fc Knob chain as in A-N88D; IgG1 hinge (C220S) + Fc Hole chain as in A-N88D

M07e-hPD-1 cell proliferation ratio (%) at 0.0001 nM (human PD-1): 8.9%
M07e-hPD-1 cell proliferation ratio (%) at 0.001 nM (human PD-1): 4.1%
M07e-hPD-1 cell proliferation ratio (%) at 0.01 nM (human PD-1): 7%
M07e-hPD-1 cell proliferation ratio (%) at 0.1 nM (human PD-1): 17%
M07e-hPD-1 cell proliferation ratio (%) at 1 nM (human PD-1): 32.9%
M07e-hPD-1 cell proliferation ratio (%) at 10 nM (human PD-1): 41.6%
M07e-hPD-1 cell proliferation ratio (%) at 100 nM (human PD-1): 54.9%
M07e-hPD-1 cell proliferation ratio (%) at 1000 nM (human PD-1): 47.7%
Kd [1]: 29.3 nM
koff [1]: 0.00706 s⁻¹
kon [1]: 241000 M⁻¹ s⁻¹
B3: A-N88D-M15 (Fc fusion)
chain (part 1 of 2): B1 chain (part 1 of 2) with V56G, Q103E
chain (part 2 of 2): B1 chain (part 2 of 2)
chain: B1 chain (part 1 of 2) with V56G, Q103E
notes: as for B2
